In patent US6828106B2, “Methods and compositions using coiled binding partners” (Cyclacel Limited, priority 1999, dated 2004):

Assays:
TEV protease [1] = biological target: T1, TEV protease (Tobacco etch virus, UniProt P04517); assay: TEV protease FRET assay with homodimer-forming reporter peptide; format: biochemical; details: substrate: fluorescein/rhodamine-labeled reporter peptide homodimer; FIG. 8; read-out: Km of TEV protease by FRET analysis
T1 construct: Proteolytic cleavage was initiated by the addition of TEV protease (20U, Gibco Life Technologies); histidine tag; purchased Gibco Life Technologies
Protocol: (§1) TEV protease activity and inhibition of TEV protease activity was determined by using a peptide capable of forming a homodimer, wherein homodimer formation is decreased following TEV protease cleavage of the peptide, according to the following method.
For FRET analysis the reporter peptide (KGR MRCLEDR VENLYSQ SYHLENE VARLRRL VGELAAK) (SEQ ID NO: 32) was labeled with fluorescein or rhodamine. The labeled peptides were incubated at a total peptide concentration of 6 μM (6:1 ratio, R:F) in 50 mM Tris pH 8, and 0.5 mM EDTA, and 1 mM DTT at 30° C. for 15 minutes in a total volume of 100 μl. Proteolytic cleavage was initiated by the addition of TEV protease (20U, Gibco Life Technologies), and monitored during the time course of the reaction by measuring the emission of fluorescein (excitation 485 nm, emission 520 nm) over time. Initial rates of change of fluorescein emission were determined for the linear portion of the reaction.
(§2) The activity of the TEV protease inhibitor iodacetamide was determined by FRET or FP assays performed as described above in the absence of iodacetamide or in the presence of 0.05-100 mM iodacetamide added prior to the addition of TEV protease. The results of these experiments are presented in FIG. 9 (FRET assay) and FIG. 11 (FP assay).

TEV protease [2] = biological target: T1, TEV protease; assay: TEV protease FP assay with homodimer-forming reporter peptide; format: biochemical; details: substrate: fluorescein/biotin-labeled reporter peptide homodimer; FIG. 10; read-out: Km of TEV protease by FP analysis
Protocol: as §1
For FP analysis the reporter peptide (sequence recited above) was labeled with fluorescein or with biotin. The labeled peptides were incubated at a total peptide concentration of 6 μM (6:1 ratio, biotin:F) in 50 mM Tris, pH 8, 0.5 mM EDTA, 0.1 mg/ml BSA and 1 mM DTT at 30° C. for 5 minutes in a total volume of 100 μl. Proteolytic cleavage was initiated by the addition of TEV protease (20U), and monitored during the reaction time course by measuring the polarization of fluorescein (excitation 485 nm, emission 520 nm) over time. Initial rates of change of fluorescein polarization were determined for the linear portion of the reaction.
as §2

B1: TEV protease: Tobacco Etch Virus protease, Gibco Life Technologies (protein)
chain: GESLFKGPRDYNPISSTICHLTNESDGHTTSLYGIGFGPFIITNKHLFRRNNGTLLVQSLHGVFKVKNTTTLQQHLIDGRDMIIIRMPKDFPPFPQKLKFREPQREERICLVTTNFQTKSMSSMVSDTSCTFPSSDGIFWKHWIQTKDGQCGSPLVSTRDGFIVGIHSASNFTNTNNYFTSVPKNFMELLTNQEAQQWVSGWRLNADSVLWGGHKVFMSKPEEPFQPVKEATQLMNELVYSQ
In the case of B1, the Km (TEV protease [1]) is reported as 36 µM and the Km (TEV protease [2]) is reported as 36 µM.
